Legend:
Format in all cases: biochemical
[1] = tested on: Trastuzumab-(GalNAzβ1,4)GlcNAc; experiment: HpFT-2HR and HpFT-4HR transferring GDP-FAmP4Biotin or GDP-FAzP4Biotin to Trastuzumab-(GalNAzβ1,4)GlcNAc; details: enzyme 0.5 mg/mL, 6 h, FIG. 6(B)
Experimental: (§1) To 40 mM Tris-HCl (pH 7.5) buffer were added Trastuzumab-(Fucα1,6)(Galβ1,4)GlcNAc (2 mg/mL final), GDP-FAmP4Biotin (1 mM final), MgCl2 (20 mM final), and different HpFT enzymes (HpFT-4HR, HpFT-4HR(M4), HpFT-4HR(M7), HpFT-6HR, HpFT-3HR, HpFT-2HR, HpFT-1HR or HpFT-0HR) (0.5 mg/mL final) in sequence, and the resulting mixed solution was allowed to react at 30° C. for 1 h. Three parallels were set up for each group. After the reaction time point was reached, to the reaction solution was added 10 mM LacNA, and the reaction was terminated by a desalting column (Zeba™ Spin Desalting Columns/2 ml/40K, Thermo Fisher Scientific), and finally mass spectrometry was carried out and % of conversion was calculated. % of conversion=(MAR0 peak intensity*0+MAR1peak intensity*1+MAR2 peak intensity*2)/2* (MAR0 peak intensity+MAR1 peak intensity+MAR2 peak intensity)*100%.
To 40 mM Tris-HCl (pH 7.5) buffer were added Trastuzumab-(GalNAzβ1,4)GlcNAc (2 mg/mL final), GDP-FAmP4Biotin or GDP-FAzP4Biotin (1 mM final), MgCl2 (20 mM final), and HpFT-2HR or HpFT-4HR (0.5 mg/mL final) in sequence, and the resulting mixed solution was allowed to react at 30 t for 6 h. Three parallels were set up for each group. After the reaction time point was reached, to the reaction solution was added 10 mM LacNAc, and the reaction was terminated by a desalting column (Zeba™ Spin Desalting Columns/2 ml/40K, Thermo Fisher Scientific), and finally mass spectrometry was carried out and % of conversion was calculated. % of conversion was calculated according to Example 18.

[2] = tested on: Durvalumab-G2F; experiment: HpFT-2HR and HpFT-4HR transferring GDP-FAmSucMMAE to Durvalumab-G2F; details: donor 1 mM, enzyme 0.5 mg/mL, 30° C., 3 h and 6 h; FIG. 7B
Experimental: (§2) To 40 mM Tris-HCl (pH 7.5) buffer were added Trastuzumab-G2F (2 mg/mL final), GDP-FAmP4Biotin (1 mM final), MgCl2 (20 mM final), and different HpFT enzymes (HpFT-4HR, HpFT-4HR(M4), HpFT-4HR(M7), HpFT-6HR, HpFT-3HR, HpFT-2HR, HpFT-1HR, or HpFT-0HR) (0.5 mg/mL final) in sequence, and the resulting mixed solution was allowed to react at 30° C. for 3 h. Three parallels were set up for each group. After the reaction time point was reached, to the reaction solution was added 10 mM LacNAc (N-acetyl-D-lactosamine), and the reaction was terminated by a desalting column (Zeba™ Spin Desalting Columns/2 ml/40K, Thermo Fisher Scientific), and finally mass spectrometry was carried out and % of conversion was calculated. % of conversion=(MAR0 peak intensity*0+MAR1peak intensity*1+MAR2 peak intensity*2+MAR3 peak intensity*3+MAR4 peak intensity*4)/4* (MAR0 peak intensity+MAR1 peak intensity+MAR2 peak intensity+MAR3 peak intensity+MAR4 peak intensity)*100%.
(§3) To 40 mM Tris-HCl (pH 7.5) buffer were added Trastuzumab-G2F or Durvalumab-G2F (2 mg/mL final), GDP-FAmSucMMAE (1 mM final), MgCl2 (20 mM final), and HpFT-2HR or HpFT-4HR (0.5 mg/mL final) in sequence, and the resulting mixed solution was allowed to react at 30° C. for 3 h and 6 h. Three parallels were set up for each group. […]

[3] = tested on: Trastuzumab-(Galβ1,4)GlcNAc; experiment: HpFT-2HR and HpFT-4HR transferring GDP-FAmSucMMAE to Trastuzumab-(Galβ1,4)GlcNAc; details: donor 1 mM, enzyme 0.5 mg/mL, 30° C., 1 h and 2 h; FIG. 9
Experimental: as §1
as §3, with “added Trastuzumab-(Galβ1,4)GlcNAc” for “added Trastuzumab-G2F or Durvalumab-G2F”, “for 1” for “for 3”, “and 2” for “and 6”

[4] = tested on: Trastuzumab-(GalNAzβ1,4)GlcNAc; experiment: HpFT-2HR and HpFT-4HR transferring GDP-FAmSucMMAE to Trastuzumab-(GalNAzβ1,4)GlcNAc; details: donor 1 mM, enzyme 0.5 mg/mL, 30° C., 3 h and 6 h; FIG. 8A
Experimental: as §1
as §3, with “Trastuzumab-(GalNAzβ1,4)GlcNAc” for “Trastuzumab-G2F”, “Durvalumab-(GalNAzβ1,4)GlcNAc” for “Durvalumab-G2F”

[5] = tested on: Trastuzumab-G2F; experiment: HpFT-2HR and HpFT-4HR transferring GDP-FAmSucMMAE to Trastuzumab-G2F; details: donor 1 mM, enzyme 0.5 mg/mL, 30° C., 3 h and 6 h; FIG. 7A
Experimental: as §2, §3

B1: HpFT-2HR: H. pylori α-1,3-fucosyltransferase variant: catalytically active domain, two heptapeptide repeat sequences and C-terminus fused His tag (protein)
chain: MFQPLLDAFIESASIEKMVSKSPPPPLKIAVANWWGDEEIKEFKKSVLYFILSQRYAITLHQNPNESSDLVFSNPLGAARKILSYQNTKRVFYTGENESPNFNLFDYAIGFDELDFNDRYLRMPLYYAHLHYEAELVNDTTAPYKLKDNSLYALKKPSHHFKENHPNLCAVVNDESDLLKRGFASFVASNANAPMRNAFYDALNSIEPVTGGGSVRNTLGYKVGNKSEFLSQYKFNLCFENSQGYGYVTEKILDAYFSHTIPIYWGSPSVAKDFNPKSFVNVHDFNNFDEAIDYIKYLHTHPNAYLDMLYENPLNTLDGKAYFYQDLSFKKILDFFKTILENDTIYHNNPFIFYRDLHEPLISIDDLRVNYDDLRVNYLEHHHHHH
modifications: Catalytically active domain of Helicobacter pylori Alpha-(1,3)-fucosyltransferase (GenBank No.AAD07710.1) with 2 heptapeptide repeats and a C-terminal His tag
activity in catalyzing the transfer of GDP-FAmP4Biotin relative to transfer of GDP-FAzP4Biotin ([1]; donor 1 mM): significantly higher
activity in catalyzing the transfer of GDP-FAmP4Biotin, as compared with HpFT-4HR ([1]; donor GDP-FAmP4Biotin 1 mM): significantly improved activity
activity in catalyzing the transfer of GDP-FAzP4Biotin, as compared with HpFT-4HR ([1]; donor GDP-FAzP4Biotin 1 mM): significantly improved activity
activity in catalyzing the transfer of GDP-FAmSucMMAE, as compared with HpFT-4HR [2]: significantly improved activity
activity in catalyzing the transfer of GDP-FAmSucMMAE, as compared with HpFT-4HR [3]: significantly improved activity
activity in catalyzing the transfer of GDP-FAmSucMMAE, as compared with HpFT-4HR [4]: significantly improved activity
activity in catalyzing the transfer of GDP-FAmSucMMAE, as compared with HpFT-4HR [5]: significantly improved activity
